test system: MS2 coat protein; experiment: apparent KD of MS2 coat protein, switch OFF state (with FMN for OFF switches, without FMN for ON switches); designed switch direction (-1 OFF switch, 1 ON switch): 1; higher = weaker reporter binding; settings: FMN input: 0 or 200 uM; Eterna round: R93 (includes R88 designs)
How it was run: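 Binding of SNAP-549-labelled MS2 coat protein was measured on designed RNA switches transcribed on-chip from Illumina sequencing clusters. The protein rose in twofold steps from 0.7 or 1.5 nM to 3 µM, with 0.8–1.5 h per step early on and 10–20 min per step later, in 100 mM Tris-HCl pH 7.5, 80 mM KCl, 4 mM MgCl2, without or with constant ligand. Each design's apparent KD is the median of fits to its normalised cluster binding curves.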

Sequence	apparent KD of MS2 coat protein [nM]
GGGAAGAAGAGAGAGGAUAUCCAAAGGAAAACAUGAGGAUCACCCAUGUAAAAGGUAGGAAAUUGGGAGAAGGCUCAAAAGAGGG [salish99-ss2-032]	39.4
AUUCCAAAUAGUCAGGAUAUCAGAAGUAAGACAUGAGGAUCACCCAUGUACUUAGUAAAAGUAACUGAGAAGGGACAGGGUGUAA [JR_SS002_Sub405]	16.1
AAAAAACAUGAGGAUCACCCAUGUAAAAAUAUGGGAGGAUAUGGAAACACGAAAGUGAAACCAGAAGGCUCAAAAG [77%, Mat - Mod of Eli, 17]	78.4
GAACCACAUGAGGAUCACCCAUGUCAAAGAAAUCAAGGAUAUGCACAAAAGGAAAUAACUGCAGAAGGUGAACGAA [62%, Redo, 1]	40.9
AGGAAACAUGAGGAUCACCCAUGUAUAAAAAUGGGAGGAUAUACAAAGACGAAAGUCAAAGUAGAAGGCCUAAAAA [76%, Meechl, 7]	51.5
AGGAAACAUGAGGAUCACCCAUGUAAAAGGUGGGUAGGAUAUGCGAAAAGAAAAAGAAAAGCAGAAGGACCAAGAA [62%, Something completely different, 1]	108
AGAAUAAAAACAGAGGAUAUCCAAAAGAAAACAUGAGGAUCACCCAUGUAAAAGAAAAUAAAAUGGGAGAAGGCUGAAAAAAAGA [Mat - Same State 2 - Eli mod - D98]	39.3
GGCCAACAUGAGGAUCACCCAUGUCGCCAAAAUCGAGGAUAUGGGUGCCAGCUCGGGCAGCCAGAAGGCGACAAAA [Qutiqumais]	224
AGGAAACAUGAGGAUCACCCAUGUAAAGAUGGGCGAGGAUAUCGAAAGAAAAGAAAGAAACGAGAAGGUGCAAAAG [59%, Flamingo, 1]	251
AACAAUCUAUCUGAGGAUAUCAUGUCAAAGACAUGAGGAUCACCCAUGUCGCAGGAAACUGCUCAUGAGAAGGCAGAUAGAUUGA [SS2: 1128]	17.2
UCCUUACAUGAGGAUCACCCAUGUCGCAGGAAUCAAGGAUAUGGGUCCGCAAUGCGGAAACCAGAAGGUGACAAAA [Edusquanon]	489
GAACCACAUGAGGAUCACCCAUGUCUAAAUAUGGGAGGAUAUGCACAAAAGGAAAUAACUGCAGAAGGCCUACGAA [62%, Redo, 3]	135
AAAAUAUAAACGGAGGAUAUCCAAAGAACCACAUGAGGAUCACCCAUGUAAAGAAAGAAUAAGUGGGAGAAGGCCGAAAUAAUAA [Designing denovo 27]	56.9
AAAAAAAAGGGUGAGGAUAUCGAAAAAAAAACAUGAGGAUCACCCAUGUGAAAAAAAAAAAAAUGCGAGAAGGCACUAAAAAAAAA [Same State 2.3]	104
AAAAGACAUGAGGAUCACCCAUGUAAAAACGUGGGAGGAUAUGCAUGGAAAACAUGCUGUGCAGAAGGCCCGUGUC [SS1 - 22]	200
GAAAAACAUGAGGAUCACCCAUGUAAAAAUAUGGGAGGAUAUUGAAAGACGAAAGUCAAACAAGAAGGCCUAAAAG [Garnet 2]	119
GUAUAUAUAAGACAGGAUAUCCUAAAGUAAACAUGAGGAUCACCCAUGUAAAGAAAGAAACUCAUGGAGAAGGGUCAAUAUAUAC [Mat - Same State 2 - Tesla mod - D82]	27.1
UAUAAACAUGAGGAUCACCCAUGUAGAAAUAUGGGAGGAUAUACAAAGACGAAAGUCAAAGUAGAAGGCCUAAUAA [Mat - Same State 1 - Mod - D156]	89.4
GUGUAUAGAAUCGAGGAUAUCCUGUAAUGCACAUGAGGAUCACCCAUGUAAGAGCGAGAAUAAUGGGAGAAGGCGAGUUAUCGGU [JR_SS002_Sub1710]	46.1
AGAAAUAAAAGAGAGGAUAUCCAAAAGAAAACAUGAGGAUCACCCAUGUAAAAGAAAAUAAAAUGGGAGAAGGCUCAUGAUAAAG [JL In the Red Helter Skelter 2 mod 1]	35.8
UGAAAACAUGAGGAUCACCCAUGUAGAAAUAUGGGAGGAUAUACGAAGACGAAAGUCAAAGUAGAAGGCCUAAAUG [Mat - Same State 1 - Eli mod - D110]	72.1

Sequence	apparent KD of MS2 coat protein [nM]
AAUACACAUGGUCAGGAUAUCGCAGCUAGGACAUGAGGAUCACCCAUGUCGUAAGUAAAAGUAAAUGAGAAGGGACAGGGUGACC [JR_SS002_Sub406]	28.2
ACUAUACAUGAGGAUCACCCAUGUCAGGUGGGACUAGGAUAUCAUAAGCCAGAGUAAGUAUGAGAAGGAGUAGAAA [JR_SS001_Sub305]	74.7
GAUAUACAUGAGGAUCACCCAUGUUAGGUGGGUCAAGGAUAUUGAUAUAAAUAAAAAACUCGAGAAGGUGAAUAAA [JR_SS001_Sub020]	153
AAAGGGAUUACGGAGGAUAUGGAAAAAAAAACAUGAGGAUCACCCAUGUCAAAAAAAAAAAAGGACCAGAAGGCCGUAAUCUCAAA [hsl_samestate2]	22.6
UGGAGACAUGAGGAUCACCCAUGUGAGAAGAGGCGAGGAUAUCGAAAGAAAGAAGAGAAACGAGAAGGCGCGAGUG [salish99-SS1-042]	46.9
GGGACCAGCGUCAAGGAUAUUCAUAUAUAAACAUGAGGAUCACCCAUGUAGGCCAGGAGGCCUUGGGAGAAGGUGAGUUGGCUCG [Xegedibe]	249
UAUAGACAUGAGGAUCACCCAUGUAGAAUUAUGGGAGGAUAUACAAAGACGAGAGUCAGAGUAGAAGGCCUAGGAA [salish99-ss1-152]	55.7
AACAAUCUAUCUGAGGAUAUCAUGUAAAAAACAUGAGGAUCACCCAUGUCUAGGAAAACUAGAUAUGAGAAGGCAGAUAGAUUGA [SS1 - 596]	86.1
AAUAUAUUAAGUGAGGAUAUCAUAGGAAAAACAUGAGGAUCACCCAUGUGGGAAACCUGGUCGGGUGAGAAGGUACUUAAUAUAU [Samwise Clockwise 31 - Jieux - Same State 2]	175
GAAGACAUAGUUCAGGAUAUAGGAAUAGUCACAUGAGGAUCACCCAUGUGCAUUUAUAUGCGCACUUAGAAGGGAGGUAGUUAUA [SameState2 Malc#22]	26.4
GAGGACAUAGUAUAGGAUAUAUGAAUAAUUACAUGAGGAUCACCCAUGUCCAUUUAUAUGGGAACAUAGAAGGGUGGUAGUUGUC [Mat - Same state - Malcolm Mod - D130]	200
AUAAAACAUGAGGAUCACCCAUGUAAAAAAGCAUGAGGAUAUAUAAAAAGAAAAAGAAGAAUAGAAGGCAUAAUAA [JR_SS001_Sub1223]	50.5
AAAACACAUGAGGAUCACCCAUGUGAAAACAUGGGAGGAUAUGCAUGGAAAACAUGCUAUGCAGAAGGCUCAUGUG [SS1 - 7]	62.6
GAAGACAUAGUUCAGGAUAUGGUAAUAGUCACAUGAGGAUCACCCAUGUGCAUUUAUAUGCGCGAUCAGAAGGGAGGUAGAUAAG [Mat - Same state - Malcolm Mod - D116]	18.3
AAAACACAUGAGGAUCACCCAUGUGCAAAAUUCGCAGGAUAUUCCUCAAUUAAAUGAGAGGAAGAAGGGUGAUAAA [Nob's Hobby 33 - Jieux - Same State 1]	53.4
AUAAUAUUAAGCAAGGAUAUACUAAAGUAAACAUGAGGAUCACCCAUGUAAAAAAAAAAACUCAUGUAGAAGGUGCAUAAAUAAA [moonwalk 10]	33.1
CGGAGACAUGAGGAUCACCCAUGUGAGAAGAGGCGAGGAUAUGGAAAUAAAGAAGAGAAAUGAGAAGGCGCGAGCC [salish99-SS1-082]	36.3
AAUACAAAUAGUCAGGAUAUCAAAAAUAAGACAUGAGGAUCACCCAUGUAAUAAGUAAAAGUAAAUGAGAAGGGACAGGGUGAAA [JR_SS002_Sub401]	59.2
AAAUAAAAAAAAAAGGAUAUUCAUGUGAAAACAUGAGGAUCACCCAUGUAAAAAAAUAAAAAUAAAAAGAAGGAAAAAUAAAAAA [SS2: 86 No MS2]	841
AAGAAACAUGAGGAUCACCCAUGUGAGAAUAACACAGGAUAUGCGAAAAGAAACAAAGAAGCAGAAGGGUGAAGAA [Mat - Same State 1 - Tesla mod - 54]	40.3
GAAAAACAUGAGGAUCACCCAUGUAGAAAUAUGGGAGGAUAUACAAAGACGAAAGUCAAAGUAGAAGGCCUUAAAG [JL S1 M-MoE mod 1 In the Red]	54.9

Source: the supplement of paper PMC9170038
